This passage reports response results from paper PMC4498904, “Mutagenesis Study Reveals the Rim of Catalytic Entry Site of HDAC4 and -5 as the Major Binding Surface of SMRT Corepressor” (PLoS ONE, 2015).

The labels stand for the following.
B1: KGC-HDAC4c (C-terminal portion of Kusabira Green protein fused with HDAC4c), wild type [human] / KGN-SRD3c (N-terminal portion of Kusabira Green protein fused with SRD3c) [human] (parent)
chain 1: PRFTTGLVYDTLMLKHQCTCGSSSSHPEHAGRIQSIWSRLQETGLRGKCECIRGRKATLEELQTVHSEAHTLLYGTNPLNRQKLDSKKLLGSLASVFVRLPCGGVGVDSDTIWNEVHSAGAARLAVGCVVELVFKVATGELKNGFAVVRPPGHHAEESTPMGFCYFNSVAVAAKLLQQRLSVSKILIVDWDVHHGNGTQQAFYSDPSVLYMSLHRYDDGNFFPGSGAPDEVGTGPGVGFNVNMAFTGGLDPPMGDAEYLAAFRTVVMPIASEFAPDVVLVSSGFDAVEGHPTPLGGYNLSARCFGYLTKQLMGLAGGRIVLALEGGHDLTAICDASEACVSALLGNELDPLPEKVLQQRPNANAVRSMEKVMEIHSKYWRCLQRTTSTAGRSLIEAQTCENEEAET
chain 2: EGGMSVTQCSKEDGRSSSGPPHETAAPKRTYDMMEGRVGRAISSASIEGLMGRAIPPERHSPHHLKEQHHIRGSITQGIPRSYVEAQEDYLRREAKLLKREGTPPPPPPSRDLTEAYKTQALGPLKLKPAHEGLVATVKEAGRSIHEIPREELRHTPELPLAPRPLKEGSITQGTPLKYDTGASTTGSKKHDVRSLIGSPGRTFPPVHPLDVMADARALERACY
B2: KGC-HDAC5c (C-terminal portion of Kusabira Green protein fused with HDAC5c), wild type [human] / KGN-SRD3c (N-terminal portion of Kusabira Green protein fused with SRD3c) [human] (parent)
chain 1: LFTTGVVYDTFMLKHQCMCGNTHVHPEHAGRIQSIWSRLQETGLLSKCERIRGRKATLDEIQTVHSEYHTLLYGTSPLNRQKLDSKKLLGPISQKMYAVLPCGGIGVDSDTVWNEMHSSSAVRMAVGCLLELAFKVAAGELKNGFAIIRPPGHHAEESTAMGFCFFNSVAITAKLLQQKLNVGKVLIVDWDIHHGNGTQQAFYNDPSVLYISLHRYDNGNFFPGSGAPEEVGGGPGVGYNVNVAWTGGVDPPIGDVEYLTAFRTVVMPIAHEFSPDVVLVSAGFDAVEGHLSPLGGYSVTARCFGHLTRQLMTLAGGRVVLALEGGHDLTAICDASEACVSALLSVELQPLDEAVLQQKPNINAVATLEKVIEIQSKHWSCVQKFAAGLGRSLREAQAGETEEAETVS
chain 2: B1 chain 2

One test covers variants of B1. In words: BiFC assay (fluorescence spectrophotometer). Conditions: HEK293 cells, KGN-SRD3c (1 μg) and KGC-HDAC4c mutant (1 μg), 48 hours of transfection, whole cell lysates, parent: 8, read off a plot.
Regarding chain 1 PRFTTGLVYDTLMLKHQCTCGSSSSHPEHAGRIQSIWSRLQETGLRGKCECIRGRKATLEELQTVHSEAHTLLYGTNPLNRQKLDSKKLLGSLASVFVRLPCGGVGVDSDTIWNEVHSAGAARLAVGCVVELVFKVATGELKNGFAVVRPPGHHAEESTPMGFCYFNSVAVAAKLLQQRLSVSKILIVDWDVLHGNGTQQAFYSDPSVLYMSLHRYDDGNFFPGSGAPDEVGTGPGVGFNVNMAFTGGLDPPMGDAEYLAAFRTVVMPIASEFAPDVVLVSSGFDAVEGHPTPLGGYNLSARCFGYLTKQLMGLAGGRIVLALEGGHDLTAICDASEACVSALLGNELDPLPEKVLQQRPNANAVRSMEKVMEIHSKYWRCLQRTTSTAGRSLIEAQTCENEEAET [chain 1 H193L], the response is 4.3 RFU.
Turning to chain 1 PRFTTGLVYDTLMLKHQCTCGSSSSHPEHAGRIQSIWSRLQETGLRGKCECIRGRKATLEELQTVHSEAHTLLYGTNPLNRQKLDSKKLLGSLASVFVRLPYGGVGVDSDTIWNEVHSAGAARLAVGCVVELVFKVATGELKNGFAVVRPPGHHAEESTPMGFCYFNSVAVAAKLLQQRLSVSKILIVDWDVHHGNGTQQAFYSDPSVLYMSLHRYDDGNFFPGSGAPDEVGTGPGVGFNVNMAFTGGLDPPMGDAEYLAAFRTVVMPIASEFAPDVVLVSSGFDAVEGHPTPLGGYNLSARCFGYLTKQLMGLAGGRIVLALEGGHDLTAICDASEACVSALLGNELDPLPEKVLQQRPNANAVRSMEKVMEIHSKYWRCLQRTTSTAGRSLIEAQTCENEEAET [chain 1 C102Y], the response amounted to 4.5 RFU.
For chain 1 PRFTTGLVYDTLMLKHQCTYGSSSSHPEHAGRIQSIWSRLQETGLRGKCECIRGRKATLEELQTVHSEAHTLLYGTNPLNRQKLDSKKLLGSLASVFVRLPCGGVGVDSDTIWNEVHSAGAARLAVGCVVELVFKVATGELKNGFAVVRPPGHHAEESTPMGFCYFNSVAVAAKLLQQRLSVSKILIVDWDVHHGNGTQQAFYSDPSVLYMSLHRYDDGNFFPGSGAPDEVGTGPGVGFNVNMAFTGGLDPPMGDAEYLAAFRTVVMPIASEFAPDVVLVSSGFDAVEGHPTPLGGYNLSARCFGYLTKQLMGLAGGRIVLALEGGHDLTAICDASEACVSALLGNELDPLPEKVLQQRPNANAVRSMEKVMEIHSKYWRCLQRTTSTAGRSLIEAQTCENEEAET [chain 1 C20Y], the response was 4.1 RFU.
Take chain 1 PRFTTGLVYDTLMLKHQYTCGSSSSHPEHAGRIQSIWSRLQETGLRGKCECIRGRKATLEELQTVHSEAHTLLYGTNPLNRQKLDSKKLLGSLASVFVRLPCGGVGVDSDTIWNEVHSAGAARLAVGCVVELVFKVATGELKNGFAVVRPPGHHAEESTPMGFCYFNSVAVAAKLLQQRLSVSKILIVDWDVHHGNGTQQAFYSDPSVLYMSLHRYDDGNFFPGSGAPDEVGTGPGVGFNVNMAFTGGLDPPMGDAEYLAAFRTVVMPIASEFAPDVVLVSSGFDAVEGHPTPLGGYNLSARCFGYLTKQLMGLAGGRIVLALEGGHDLTAICDASEACVSALLGNELDPLPEKVLQQRPNANAVRSMEKVMEIHSKYWRCLQRTTSTAGRSLIEAQTCENEEAET [chain 1 C18Y]: the response stood at 5 RFU.

In a further test the parent is B2. Kind of test: BiFC assay (fluorescence spectrophotometer). Conditions: HEK293 cells, KGN-SRD3c (1 μg) and KGC-HDAC5c mutant (1 μg), 48 hours of transfection, whole cell lysates, parent: 9.3, read off a plot.
In the case of chain 1 LFTTGVVYDTFMLKHQWMCGNTHVHPEHAGRIQSIWSRLQETGLLSKCERIRGRKATLDEIQTVHSEYHTLLYGTSPLNRQKLDSKKLLGPISQKMYAVLPCGGIGVDSDTVWNEMHSSSAVRMAVGCLLELAFKVAAGELKNGFAIIRPPGHHAEESTAMGFCFFNSVAITAKLLQQKLNVGKVLIVDWDIHHGNGTQQAFYNDPSVLYISLHRYDNGNFFPGSGAPEEVGGGPGVGYNVNVAWTGGVDPPIGDVEYLTAFRTVVMPIAHEFSPDVVLVSAGFDAVEGHLSPLGGYSVTARCFGHLTRQLMTLAGGRVVLALEGGHDLTAICDASEACVSALLSVELQPLDEAVLQQKPNINAVATLEKVIEIQSKHWSCVQKFAAGLGRSLREAQAGETEEAETVS [chain 1 C17W], the response worked out at 4.4 RFU.
chain 1 LFTTGVVYDTFMLKHQCMCGNTHVHPEHAGRIQSIWSRLQETGLLSKCERIRGRKATLDEIQTVHSEYHTLLYGTSPLNRQKLDSKKLLGPISQKMYAVLPCGGIGVDSDTVWNEMHSSSAVRMAVGCLLELAFKVAAGELKNGFAIIRPPGHHAEESTAMGFCFFNSVAITAKLLQQKLNVGKVLIVDWDIRHGNGTQQAFYNDPSVLYISLHRYDNGNFFPGSGAPEEVGGGPGVGYNVNVAWTGGVDPPIGDVEYLTAFRTVVMPIAHEFSPDVVLVSAGFDAVEGHLSPLGGYSVTARCFGHLTRQLMTLAGGRVVLALEGGHDLTAICDASEACVSALLSVELQPLDEAVLQQKPNINAVATLEKVIEIQSKHWSCVQKFAAGLGRSLREAQAGETEEAETVS [chain 1 H193R]: the response amounted to 4 RFU.
For chain 1 LFTTGVVYDTFMLKHQCMCGNTHVHPEHAGRIQSIWSRLQETGLLSKCERIRGRKATLDEIQTVHSEYHTLLYGTSPLNRQKLDSKKLLGPISQKMYAVLPYGGIGVDSDTVWNEMHSSSAVRMAVGCLLELAFKVAAGELKNGFAIIRPPGHHAEESTAMGFCFFNSVAITAKLLQQKLNVGKVLIVDWDIHHGNGTQQAFYNDPSVLYISLHRYDNGNFFPGSGAPEEVGGGPGVGYNVNVAWTGGVDPPIGDVEYLTAFRTVVMPIAHEFSPDVVLVSAGFDAVEGHLSPLGGYSVTARCFGHLTRQLMTLAGGRVVLALEGGHDLTAICDASEACVSALLSVELQPLDEAVLQQKPNINAVATLEKVIEIQSKHWSCVQKFAAGLGRSLREAQAGETEEAETVS [chain 1 C102Y], the response worked out at 4.7 RFU.
